Source: doi:10.1101/2020.05.07.057075 (bioRxiv, 2020)
“And” between values parts separate entries of the source, which are not always exact repeats. Equal entries are not always repeated. Blank lines part the entries; values can stand above or below the binder they belong to.

B1: NPM(225-294) construct, C-terminal globular domain (domain or fragment)
chain: QESFKKQEKTPKTPKGPSSVEDIKAKMQASIEKGGSLPKVEAKFINYVKNCFRMTDQEAIQDLWQWRKSL
B2: NPM oligomerization domain NPM(1-130), His-tagged (domain or fragment)
chain: MEDSMDMDMSPLRPQNYLFGCELKADKDYHFKVDNDENEHQLSLRTVSLGAGAKDELHIVEAEAMNYEGSPIKVTLATLKMSVQPTVSLGGFEITPPVVLRLKCGSGPVHISGQHLVAVEEDAESEDEEE
B3: cytochrome c (Cc), recombinant, purified (natural protein)
chain: not shown
modifications: heme group

Columns and labels:
[1] = target: B3; assay: ITC
[2] = target: T1, full-length nucleophosmin NPM(1-294), recombinant (UniProt P06748 1-294); assay: ITC
T1 sequence (P06748 whole entry): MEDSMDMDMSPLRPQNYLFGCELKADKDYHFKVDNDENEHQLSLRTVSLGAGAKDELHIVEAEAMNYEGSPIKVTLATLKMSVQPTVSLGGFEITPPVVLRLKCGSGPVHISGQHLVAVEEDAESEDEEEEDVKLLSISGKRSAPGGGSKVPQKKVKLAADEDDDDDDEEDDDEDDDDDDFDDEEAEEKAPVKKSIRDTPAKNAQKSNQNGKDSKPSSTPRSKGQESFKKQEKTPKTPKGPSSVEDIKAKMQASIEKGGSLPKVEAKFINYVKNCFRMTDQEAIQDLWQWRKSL

SDS-PAGE = target: the molecule itself; assay: SDS-PAGE
[3] = target: T1, full-length nucleophosmin NPM(1-294), …; assay: negative-stain electron microscopy with 3D reconstruction
[4] = target: NPM(123-294) construct without the oligomerization domain (UniProt P06748 123-294); assay: ITC
[5] = target: NPM oligomerization domain core NPM(9-122) (UniProt P06748 9-122); assay: ITC

Binder: B1
Kd [1]: ~200 µM

Kd [2]: 0.28 µM
stoichiometry N [2]: 5.6
Binder: MGRRFLVTVRIQRAGRPLQERVFLVKFVRSRRPRTAS [p19ARF(1-37) domain]

Binder: B2
stoichiometry N (SDS-PAGE): 5

Binder: B3
stoichiometry N [3]: 1 Cc per NPM pentamer
Kd [4]: 13 µM
fold decrease of affinity (by KD) upon addition of 0.1 M KCl [2]: 12 fold
stoichiometry N [2]: 1 Cc:NPM and 2 Cc:NPM
fold decrease of affinity (by KD) upon addition of 0.1 M KCl [5]: 3 fold
stoichiometry N [5]: 2 Cc:NPM and 1 Cc:NPM
